Experimental data from patent US20100278832A1 (Chugai, published 2010).

Assays:
human BST2D = biological target: T1, human BST2D (human, UniProt Q10589 1-161); assay: flow cytometry of hybridoma supernatant on 293T cells expressing human BST2D
T1 construct: Transmembrane glycoprotein, splicing variant D, 180 residues; also called type D BST2; BST2D-CHO cells
Procedure: The hybridoma culture supernatants were analyzed by flow cytometry (FCM). The cells prepared as described in A of Example 1 were suspended in 0.5% BSA/2 mM EDTA/PBS, and collected into centrifuge tubes at 1×10⁵ cells/sample. 40 μl of each hybridoma culture supernatant was added, and the tubes were incubated at room temperature for 30 minutes. Then, a 1-ml aliquot of 0.5% BSA/2 mM EDTA/PBS was added to each tube, the tubes were centrifuged for three minutes at 1200 rpm and 4° C., and the supernatants were discarded; this washing process was repeated twice. A 40-μl aliquot of 100× diluted FITC-labeled goat anti-mouse IgG antibody (Beckman coulter; IM0819) was added to each tube after washing. The tubes were incubated at room temperature for 30 minutes. Following two rounds of washing, the hybridoma culture supernatants were analyzed with flow cytometer FC500 (Beckman coulter) to assess whether the antibody in the supernatants could specifically recognize human BST2D. […] The selected hybridomas were cloned by the limiting dilution method. The resulting hybridomas producing mouse anti-human BST2 antibody were named #3LD, #4LD, #7LD, #9LD, and #19LD.

human BST2H = biological target: T2, human BST2H (human); assay: flow cytometry on BST2H-CHO cells
T2 construct: Expressed from pcDNA3.1-hBST2H on CHO-K1 cells (BST2H-CHO line); Splicing variant H, 158 residues; also called type H BST2; BST2H-CHO cells
T2 chain: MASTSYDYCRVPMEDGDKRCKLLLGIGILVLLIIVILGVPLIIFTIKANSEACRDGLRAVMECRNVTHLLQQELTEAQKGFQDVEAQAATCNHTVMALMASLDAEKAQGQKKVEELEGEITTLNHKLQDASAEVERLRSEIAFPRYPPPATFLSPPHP

[1] = biological target: BST2 on human myeloma-derived RPMI8226 cells (human) (UniProt Q10589); assay: flow cytometry on RPMI8226 cells, Kd calculated with Prism 4 from percentage of staining at 0.01-10 µg/ml
[2] = biological target: T3, His-tagged recombinant human BST2 protein K(47)-P(155) (human, UniProt Q10589 47-155); assay: Western blot of His-tagged BST2 fragment, 1 µg/ml antibody
T3 construct: Expressed in E. coli BL21(DE3); denatured and reduced for Western blotting; also called lane 3: K(47)----------P(155); not shown: N-terminal His tag supplied by vector pET32
T3 sequence: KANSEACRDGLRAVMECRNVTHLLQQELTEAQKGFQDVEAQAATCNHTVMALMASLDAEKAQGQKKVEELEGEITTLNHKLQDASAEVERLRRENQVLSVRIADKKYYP
Procedure: (§1) The His-tagged human BST2 proteins (synthesized as described in A) were each dissolved in sample buffer, and heated at 70° C. for ten minutes. The dissolved proteins were fractionated on a 4-20% SDS-PAGE gradient gel (Invitrogen) and transferred onto PVDF membrane (Millipore). The membrane was blocked with BSA and incubated with 1 μg/ml antibody 4LD or 2000× diluted anti-His tag antibody (Novagen). After reaction with an HRP-labeled anti-mouse IgG antibody (Jackson), ECL Detection Reagent (GE Healthcare) was reacted for chemical luminescence, and the His-tagged human BST2 proteins were detected using LAS-1000 from Fuji Film.

[3] = biological target: T4, His-tagged recombinant human BST2 protein K(47)-I(148) (human, UniProt Q10589 47-148); assay: as above
T4 construct: Expressed in E. coli BL21(DE3); denatured and reduced for Western blotting; also called lane 6: K(47)----I(148); not shown: N-terminal His tag supplied by vector pET32
T4 sequence: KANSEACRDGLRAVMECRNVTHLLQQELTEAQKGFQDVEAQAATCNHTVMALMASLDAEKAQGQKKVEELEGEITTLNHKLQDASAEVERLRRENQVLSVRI
Procedure: as §1

[4] = biological target: T5, His-tagged recombinant human BST2 protein A(132)-Q(180) (human, UniProt Q10589 132-180, not fully specified); assay: as above
T5 construct: Expressed in E. coli BL21(DE3); denatured and reduced for Western blotting; also called lane 5: A(132)--Q(180); not shown: N-terminal His tag supplied by vector pET32
T5 chain: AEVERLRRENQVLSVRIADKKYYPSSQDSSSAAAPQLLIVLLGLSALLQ
Procedure: as §1

[5] = biological target: T6, His-tagged recombinant human BST2 protein E(133)-Q(180) (human, UniProt Q10589 133-180, not fully specified); assay: as above
T6 construct: Expressed in E. coli BL21(DE3); denatured and reduced for Western blotting; not shown: N-terminal His tag supplied by vector pET32
T6 chain: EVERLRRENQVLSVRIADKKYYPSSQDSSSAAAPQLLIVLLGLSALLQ
Procedure: as §1

[6] = biological target: T7, His-tagged recombinant human BST2 protein K(47)-A(149) (human, UniProt Q10589 47-149); assay: as above
T7 construct: Expressed in E. coli BL21(DE3); denatured and reduced for Western blotting; also called lane 5: K(47)-----A(149); not shown: N-terminal His tag supplied by vector pET32
T7 sequence: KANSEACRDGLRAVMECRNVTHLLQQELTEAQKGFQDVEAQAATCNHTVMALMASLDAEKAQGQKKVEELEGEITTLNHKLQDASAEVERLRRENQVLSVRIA
Procedure: as §1

[7] = biological target: T8, His-tagged recombinant human BST2 protein K(47)-R(147) (human, UniProt Q10589 47-147); assay: as above
T8 construct: Expressed in E. coli BL21(DE3); denatured and reduced for Western blotting; not shown: N-terminal His tag supplied by vector pET32
T8 sequence: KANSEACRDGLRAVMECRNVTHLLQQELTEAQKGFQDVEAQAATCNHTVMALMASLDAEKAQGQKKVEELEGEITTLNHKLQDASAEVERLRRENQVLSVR
Procedure: as §1

[8] = biological target: T9, His-tagged recombinant human BST2 protein K(47)-D(150) (human, UniProt Q10589 47-150); assay: as above
T9 construct: Expressed in E. coli BL21(DE3); denatured and reduced for Western blotting; also called lane 4: K(47)------D(150); not shown: N-terminal His tag supplied by vector pET32
T9 sequence: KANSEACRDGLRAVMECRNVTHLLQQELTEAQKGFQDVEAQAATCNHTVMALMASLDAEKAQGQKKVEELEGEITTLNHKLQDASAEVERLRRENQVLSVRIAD
Procedure: as §1

[9] = biological target: T10, His-tagged recombinant human BST2 protein S(131)-Q(180) (human, UniProt Q10589 131-180, not fully specified); assay: as above
T10 construct: Expressed in E. coli BL21(DE3); denatured and reduced for Western blotting; also called lane 4: S(131)-Q(180); not shown: N-terminal His tag supplied by vector pET32
T10 chain: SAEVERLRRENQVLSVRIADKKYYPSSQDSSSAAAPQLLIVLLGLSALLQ
Procedure: as §1

[10] = biological target: T11, His-tagged recombinant human BST2 protein K(47)-V(146) (human, UniProt Q10589 47-146); assay: Western blot of His-tagged BST2 fragment
T11 construct: Expressed in E. coli BL21(DE3); denatured and reduced for Western blotting; also called lane 8: K(47)--V(146); not shown: N-terminal His tag supplied by vector pET32
T11 sequence: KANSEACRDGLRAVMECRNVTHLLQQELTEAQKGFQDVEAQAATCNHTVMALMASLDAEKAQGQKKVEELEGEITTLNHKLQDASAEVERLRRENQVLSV
Procedure: as §1

[11] = biological target: T12, His-tagged recombinant human BST2 protein V(134)-Q(180) (human, UniProt Q10589 134-180, not fully specified); assay: Western blot of His-tagged BST2 fragment
T12 construct: Expressed in E. coli BL21(DE3); denatured and reduced for Western blotting; also called lane 7: V(134)----Q(180); not shown: N-terminal His tag supplied by vector pET32
T12 chain: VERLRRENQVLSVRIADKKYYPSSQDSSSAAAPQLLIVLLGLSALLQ
Procedure: as §1

[12] = biological target: T13, His-tagged recombinant human BST2 protein E(135)-Q(180) (human, UniProt Q10589 135-180, not fully specified); assay: Western blot of His-tagged BST2 fragment
T13 construct: Expressed in E. coli BL21(DE3); denatured and reduced for Western blotting; also called lane 8: E(135)-----Q(180); not shown: N-terminal His tag supplied by vector pET32
T13 chain: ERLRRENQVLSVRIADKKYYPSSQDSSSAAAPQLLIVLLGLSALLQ
Procedure: as §1

[13] = biological target: T14, His-tagged recombinant human BST2 protein R(136)-Q(180) (human, UniProt Q10589 136-180, not fully specified); assay: Western blot of His-tagged BST2 fragment
T14 construct: Expressed in E. coli BL21(DE3); denatured and reduced for Western blotting; also called lane 9: R(136)------Q(180); not shown: N-terminal His tag supplied by vector pET32
T14 chain: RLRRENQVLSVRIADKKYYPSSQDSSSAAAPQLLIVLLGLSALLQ
Procedure: as §1

[14] = biological target: T15, His-tagged recombinant human BST2 protein L(137)-Q(180) (human, UniProt Q10589 137-180, not fully specified); assay: Western blot of His-tagged BST2 fragment
T15 construct: Expressed in E. coli BL21(DE3); denatured and reduced for Western blotting; also called lane 10: L(137)-------Q(180); not shown: N-terminal His tag supplied by vector pET32
T15 chain: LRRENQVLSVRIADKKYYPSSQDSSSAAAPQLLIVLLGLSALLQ
Procedure: as §1

[15] = biological target: T16, His-tagged recombinant human BST2 protein K(47)-S(145) (human, UniProt Q10589 47-145); assay: Western blot of His-tagged BST2 fragment
T16 construct: Expressed in E. coli BL21(DE3); denatured and reduced for Western blotting; also called lane 9: K(47)-S(145); not shown: N-terminal His tag supplied by vector pET32
T16 sequence: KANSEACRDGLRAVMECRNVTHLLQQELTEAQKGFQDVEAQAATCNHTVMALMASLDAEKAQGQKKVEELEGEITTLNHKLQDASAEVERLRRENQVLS
Procedure: as §1

- binding result (human BST2D): binds
- binding result (human BST2H): no binding
- Kd [1]: 0.1 nM
- binding result [2]: binds
- binding result [3]: binds
- binding result [4]: binds
- binding result [5]: binds
- binding result [6]: binds
- binding result [7]: binds
- binding result [8]: binds
- binding result [9]: binds
- binding result [10]: no binding (tested: 1 µg/ml)
- binding result [11]: no binding (tested: 1 µg/ml)
- binding result [12]: no binding (tested: 1 µg/ml)
- binding result [13]: no binding (tested: 1 µg/ml)
- binding result [14]: no binding (tested: 1 µg/ml)
- binding result [15]: no binding (tested: 1 µg/ml)
B1: mouse anti-human BST2 monoclonal antibody #4LD (antibody, V domains shown)
VH: DVQLQESGPGLVKPSQSLSLTCSVTGYSITSGYYWNWIRQFPGNKLEWMGYISYDGSNNYNPSLKNRISITRDTSKNQFFLKLNSVTTEDTATYYCAILGRGYWGQGTTLTVSS
VL: DIVLTQSPASLAVSLGQRATISCRASQSVSTSSYSYMHWYQQKPGQPPKLLIKYASNLESGVPARFSGSGSGTDFTLNIHPVEEEDTATYYCQHSWEIPYTFGGGTKLEIK
notes: Purified from hybridoma #4LD (FERM BP-10964); also called mouse antibody #4LD; anti-human BST2(D+/H-) antibody
